Laboratory results: ChEMBL document CHEMBL1152109, “Synthesis and biological evaluation of a new series of dihydrofolate reductase inhibitors based on the 4-(2,6-diamino-5-pyrimidinyl)alkyl-L-glutamic acid structure” (Bioorg Med Chem Lett, 1996)

What was measured:
[1] = Binding affinity against human monofunctional glycinamide ribonucleotide formyl transferase (GARFT)
Thymidylate synthase [2] = target: T1, Thymidylate synthase (Homo sapiens, UniProt P04818); assay: Binding affinity against Recombinant human thymidylate synthase (TS)
Dihydrofolate reductase = target: T2, Dihydrofolate reductase (Homo sapiens, UniProt P00374); assay: Binding affinity against Recombinant human dihydrofolate reductase (DHFR)
T2 sequence (P00374 whole entry): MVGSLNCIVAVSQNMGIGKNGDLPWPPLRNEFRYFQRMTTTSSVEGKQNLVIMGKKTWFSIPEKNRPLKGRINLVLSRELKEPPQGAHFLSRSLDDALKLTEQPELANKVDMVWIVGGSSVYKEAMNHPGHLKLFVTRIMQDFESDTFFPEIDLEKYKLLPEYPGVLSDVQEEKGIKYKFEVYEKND

[3] = Ratio of Vmax/Km was evaluated.
Thymidylate synthase [4] = target: T1, Thymidylate synthase; assay: Binding affinity against Recombinant human thymidylate synthase (TS).
[5] = Binding affinity against human monofunctional glycinamide ribonucleotide formyl transferase (GARFT).
[6] = substrate: CCC(Cc1cnc2nc(N)nc(N)c2n1)c1ccc(C(=O)N[C@@H](CCC(=O)O)C(=O)O)cc1; assay: Substrate activity against folyl-poly-glutamate synthetase (FPGS) (isolated from hog liver).; conditions: Sus scrofa
[7] = substrate: Nc1ncc(CCCCc2ccc(C(=O)N[C@@H](CCC(=O)O)C(=O)O)cc2)c(N)n1; assay: (§1) Substrate activity against folyl-poly-glutamate synthetase isolated from hog liver; conditions: Sus scrofa
[8] = substrate: Nc1ncc(CCCc2ccc(C(=O)N[C@@H](CCC(=O)O)C(=O)O)cc2)c(N)n1; assay: as §1; conditions: Sus scrofa
[9] = substrate: Nc1nc2[nH]cc(CCc3ccc(C(=O)N[C@@H](CCC(=O)O)C(=O)O)cc3)c2c(=O)[nH]1; assay: as §1; conditions: Sus scrofa
[10] = substrate: Nc1nc2c(c(=O)[nH]1)C[C@@H](CCc1ccc(C(=O)N[C@@H](CCC(=O)O)C(=O)O)cc1)CN2; assay: as §1; conditions: Sus scrofa
[11] = substrate: CN(Cc1cnc2nc(N)nc(N)c2n1)c1ccc(C(=O)N[C@@H](CCC(=O)O)C(=O)O)cc1; assay: as §1; conditions: Sus scrofa

T1 sequence (P04818 whole entry): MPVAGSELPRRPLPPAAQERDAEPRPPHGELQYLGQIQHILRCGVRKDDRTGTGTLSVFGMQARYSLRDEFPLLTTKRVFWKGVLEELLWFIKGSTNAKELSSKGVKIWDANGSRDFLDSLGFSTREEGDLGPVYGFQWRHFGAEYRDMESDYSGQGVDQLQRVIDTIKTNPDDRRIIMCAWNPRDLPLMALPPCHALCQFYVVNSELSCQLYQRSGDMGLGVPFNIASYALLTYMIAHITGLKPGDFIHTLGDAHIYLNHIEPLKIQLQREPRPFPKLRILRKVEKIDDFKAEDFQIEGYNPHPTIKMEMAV

## Nc1ncc(CCCc2ccc(C(=O)N[C@@H](CCC(=O)O)C(=O)O)cc2)c(N)n1
[1]
  Ki: 54.3 µM
Thymidylate synthase [2]
  Ki: > 5 µM
Dihydrofolate reductase
  Ki: 0.12 nM

## CN(Cc1cnc2nc(N)nc(N)c2n1)c1ccc(C(=O)N[C@@H](CCC(=O)O)C(=O)O)cc1
[3]
  Ratio: 4.3

## Nc1nc2c(c(=O)[nH]1)CC(CCc1ccc(C(=O)N[C@@H](CCC(=O)O)C(=O)O)cc1)CN2 (single isomer, unassigned)
[3]
  Ratio: 60

## Nc1nc2[nH]cc(CCc3ccc(C(=O)N[C@@H](CCC(=O)O)C(=O)O)cc3)c2c(=O)[nH]1
[3]
  Ratio: 381

## CCC(Cc1cnc2nc(N)nc(N)c2n1)c1ccc(C(=O)N[C@@H](CCC(=O)O)C(=O)O)cc1 (stereo partly drawn)
[3]
  Ratio: 19

## Nc1ncc(CCCCc2ccc(C(=O)N[C@@H](CCC(=O)O)C(=O)O)cc2)c(N)n1
Thymidylate synthase [4]
  Ki: > 5 µM
[3]
  Ratio: 34
[5]
  Ki: 62 µM
Dihydrofolate reductase
  Ki: 0.005 nM

B1: Folylpolyglutamate synthase, mitochondrial (Homo sapiens), Q05932 (protein)
chain: MSRARSHLRAALFLAAASARGITTQVAARRGLSAWPVPQEPSMEYQDAVRMLNTLQTNAGYLEQVKRQRGDPQTQLEAMELYLARSGLQVEDLDRLNIIHVTGTKGKGSTCAFTECILRSYGLKTGFFSSPHLVQVRERIRINGQPISPELFTKYFWRLYHRLEETKDGSCVSMPPYFRFLTLMAFHVFLQEKVDLAVVEVGIGGAYDCTNIIRKPVVCGVSSLGIDHTSLLGDTVEKIAWQKGGIFKQGVPAFTVLQPEGPLAVLRDRAQQISCPLYLCPMLEALEEGGPPLTLGLEGEHQRSNAALALQLAHCWLQRQDRHGAGEPKASRPGLLWQLPLAPVFQPTSHMRLGLRNTEWPGRTQVLRRGPLTWYLDGAHTASSAQACVRWFRQALQGRERPSGGPEVRVLLFNATGDRDPAALLKLLQPCQFDYAVFCPNLTEVSSTGNADQQNFTVTLDQVLLRCLEHQQHWNHLDEEQASPDLWSAPSPEPGGSASLLLAPHPPHTCSASSLVFSCISHALQWISQGRDPIFQPPSPPKGLLTHPVAHSGASILREAAAIHVLVTGSLHLVGGVLKLLEPALSQ
[6]
  Km: 13.3 µM
  Vmax: 258 nM/h/mg
[7]
  Km: 20 µM
  Vmax: 685 nM/h/mg
[8]
  Km: 5.1 µM
  Vmax: 758 nM/h/mg
[9]
  Km: 1.9 µM
  Vmax: 725 nM/h/mg
[10]
  Km: 16.4 µM
  Vmax: 977 nM/h/mg
[11]
  Km: 116 µM
  Vmax: 498 nM/h/mg
